Where a chain is given by its changes, count along the chain named.
B1: CB-8 (antibody, V domains shown)
VH: EVQLVQSGAEVKKPGASVKVSCKASGYTFTSYGISWVRQAPGQGLEWMGWISAYNGNTNYAQKLQGRVTMTTDTSTSTAYMELRSLRSDDTAVYYCATLYGSGSLYYWGQGTLVTVSS
VL: DIVMTQSPSSLSAPVGDRVTITCQASQDIRNYINWFQQKPGKAPKLLIYAASSLQSGVPSRFSGSGSGTDFTLTISSLQPEDFATYYCQQSYSTPQWTFGQGTKVEIK
B2: CB-8-24 (antibody, V domains shown)
VH: B1 VH with Y100L, G101P
VL: B1 VL
B3: CB-8-14 (antibody, human IgG1, V domains shown)
VH: B1 VH with T30R, N55T
VL: B1 VL with L54R
B4: CB-8-26 (antibody, human IgG1, V domains shown)
VH: B1 VH with T30K, N57R
VL: B1 VL with S53G
B5: CB-8-13 (antibody, human IgG1, V domains shown)
VH: B1 VH with T28R, N57R
VL: B1 VL with S53R
B6: CB-8-41 (antibody, human IgG1, V domains shown)
VH: B1 VH with T28L, N55T
VL: B1 VL with S53H
B7: CB-8-37 (antibody, human IgG1, V domains shown)
VH: B1 VH with T28A, N55S
VL: B1 VL with S53F
B8: CB-8-23 (antibody, human IgG1, V domains shown)
VH: B1 VH with Y32G, N57R
VL: B1 VL with S53F
B9: CB-8-40 (antibody, human IgG1, V domains shown)
VH: B1 VH with N55S
VL: B1 VL with S53Y

Target: human FGFR1c/βKlotho receptor (human), P11362
Experiment: cell-based or functional assay

Chain of human FGFR1c/βKlotho receptor (human), P11362 (P11362 22-822, chain 1 of 2): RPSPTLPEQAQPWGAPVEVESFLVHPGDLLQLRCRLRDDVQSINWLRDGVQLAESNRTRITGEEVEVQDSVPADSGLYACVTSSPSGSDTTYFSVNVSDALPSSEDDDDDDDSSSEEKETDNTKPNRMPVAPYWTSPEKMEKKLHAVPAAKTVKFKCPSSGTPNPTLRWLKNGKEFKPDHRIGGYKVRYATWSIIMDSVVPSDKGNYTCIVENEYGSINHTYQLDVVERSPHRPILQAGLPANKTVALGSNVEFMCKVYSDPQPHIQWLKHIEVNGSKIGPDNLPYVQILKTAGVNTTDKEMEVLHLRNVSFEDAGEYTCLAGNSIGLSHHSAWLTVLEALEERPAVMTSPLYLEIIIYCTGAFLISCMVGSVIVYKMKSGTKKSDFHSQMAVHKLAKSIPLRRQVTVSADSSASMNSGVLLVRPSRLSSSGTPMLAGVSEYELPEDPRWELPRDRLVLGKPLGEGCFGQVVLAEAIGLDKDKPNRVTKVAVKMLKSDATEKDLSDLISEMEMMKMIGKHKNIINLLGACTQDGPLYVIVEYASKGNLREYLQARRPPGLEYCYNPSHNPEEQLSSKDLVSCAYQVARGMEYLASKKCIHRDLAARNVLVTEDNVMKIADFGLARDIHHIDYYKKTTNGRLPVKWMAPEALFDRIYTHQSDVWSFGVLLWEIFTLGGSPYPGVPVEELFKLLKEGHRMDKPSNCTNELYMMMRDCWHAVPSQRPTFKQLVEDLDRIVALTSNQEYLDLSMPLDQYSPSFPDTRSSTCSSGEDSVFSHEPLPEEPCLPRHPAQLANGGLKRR
Chain of human FGFR1c/βKlotho receptor (human), P11362 (chain, as listed by the source, chain 2 of 2): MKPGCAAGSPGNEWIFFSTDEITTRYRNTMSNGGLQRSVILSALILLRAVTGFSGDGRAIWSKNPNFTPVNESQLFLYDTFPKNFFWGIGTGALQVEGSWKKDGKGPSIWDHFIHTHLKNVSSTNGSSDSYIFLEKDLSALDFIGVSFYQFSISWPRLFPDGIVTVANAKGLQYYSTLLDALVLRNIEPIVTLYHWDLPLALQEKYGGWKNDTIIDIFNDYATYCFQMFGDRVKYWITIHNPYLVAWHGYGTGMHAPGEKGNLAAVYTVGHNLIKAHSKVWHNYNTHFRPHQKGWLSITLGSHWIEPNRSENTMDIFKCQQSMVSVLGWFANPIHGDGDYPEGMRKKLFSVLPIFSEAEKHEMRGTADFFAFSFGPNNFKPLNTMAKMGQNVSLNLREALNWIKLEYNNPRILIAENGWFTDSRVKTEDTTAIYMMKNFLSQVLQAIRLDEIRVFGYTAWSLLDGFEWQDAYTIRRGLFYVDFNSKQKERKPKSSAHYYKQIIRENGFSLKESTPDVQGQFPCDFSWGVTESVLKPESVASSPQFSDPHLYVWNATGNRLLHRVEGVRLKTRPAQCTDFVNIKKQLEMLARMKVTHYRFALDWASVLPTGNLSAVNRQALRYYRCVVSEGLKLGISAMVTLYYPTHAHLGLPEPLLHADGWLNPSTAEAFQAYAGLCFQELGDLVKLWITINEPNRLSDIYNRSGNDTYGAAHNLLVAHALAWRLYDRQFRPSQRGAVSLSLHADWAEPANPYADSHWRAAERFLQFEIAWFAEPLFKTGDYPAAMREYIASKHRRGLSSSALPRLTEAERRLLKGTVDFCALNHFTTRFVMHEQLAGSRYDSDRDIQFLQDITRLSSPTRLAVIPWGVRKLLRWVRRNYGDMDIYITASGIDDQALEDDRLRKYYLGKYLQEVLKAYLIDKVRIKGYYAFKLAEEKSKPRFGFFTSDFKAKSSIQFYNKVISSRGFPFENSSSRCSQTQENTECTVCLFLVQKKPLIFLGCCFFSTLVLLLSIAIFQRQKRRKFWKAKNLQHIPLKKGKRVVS

EC50, luciferase reporter-based assay (receptor activation) [nM] | EC50 for antibody-induced cell activation, as determined by the reporter-based assay [nM] | Binder
1.31 | 3.74 | B1
 | 0.68 | B2
 | 0.95 | B3
 | 0.66 | B4
 | 1.39 | B5
 | 1.43 | B6
 | 0.92 | B7
 | 0.57 | B8
 | 0.89 | B9
